Measurements taken from the DeepSol protein solubility set.

Experiment: soluble on expression in E. coli; label from the status in PepcDB or PDB records

| Sequence | soluble on expression in E. coli |
| --- | --- |
| MKDIIIASFYKFIPLNDFESLREPILTKMHEIGIKGTIILAHEGVNGGFAGNREQMNVFYDYLRSDSRFADLHFKETYDNKNPFDKAKVKLRKEIVTMGVQKVDPSYNAGTYLSPEEWHQFIQDPNVILLDTRNDYEYELGTFKNAINPDIENFREFPDYVQRNLIDKKDKKIAMFCTGGIRCEKTTAYMKELGFEHVYQLHDGILNYLESIPESESLWEGKCFVFDDRVAVDQKLDRVYPQLPQDYKYEREQK | not soluble |
| MKDLIIIGAGQAGLTMGYYLKQEGYNFLLLEAGKRVGDSWRNRYDSLQLFTPRSYSSLPGMALIGEKNEFPYKDEIATYLEEYARHFQLPVQLQTEVLKIKKEKEIFELHTPTEILQTKKVIIASGAFQQPFIPSVSANLSSHIFQIHSSQYKSPSQIPKGKVLVVGGGNSGMQIAVELAKTHEVTVSISHPLTFLPLQLFGKSIFNLLEKVGLLYAEINTKRGRWFQKRKDPIFGFEGKKLIRNGAIKLQEKVVSASRNNIMFQNGDTYSAESIIWSTGFVQNYNWIEIEQAVNEKGFPNHIKGISPVKGLYYIGLPLEHHHHHH | not soluble |
| MKDMKTIEGIIVVTTPEIPGYKVVEVKGVARGGTVRATHIGRDIMALLRNLKGGEVKEYTEMMAEAREEALRRMALHAKELGANAVVNFRFATSNLGGSMAEIYAYGTAVVVERVEK | soluble |
| MKDPKAPIGVFDSGVGGLTVLKALRRLLPREEFLYFGDTARVPYGGKPLAMVRRFAWEIAGFLLRQGVKAIVVACNTASSAALPDLAEDLSVPVFGVVEPVARAVRGFRKVGLIGTQATVESGAYPRYVDLACAKACPLFVPLVEEGLWDDPVALLVARHYLEDAPKDLEALILGCTHYPFLKGAIGAVLPGVALLDSAELTAQEVARALEAEGLLNPEGRGRTFHLVTGDPEAYRALAERLGERVEAVRRVSLEEL | soluble |
| MKDRYLIIDGYNMIGQSQELSRIAQDNLEEAREQLLIAIANYNAVIADEVVCVFDAYEQSGAPTEYMYHGVKTIFTKEKETADSYIERYVYDLYDKHTRHITVVTSDMSEQHAIFGAGAYRVSSREMWRDLRENEISVSKKLDGFNEQKPRTRIELSNEILEEFEKLRRGDNHLEHHHHHH | not soluble |
| MKDYRYALPAMMSVRKGESRYFNRGDQHLMNEILARVRAEGKIRLRDIDKKNKESLGNWWNTGPGRRAFEQLYMQGDLMICERNGMEKVYDLTERCLPENIDLSLPTLYEYAQYLFNNTLRAHGAFTWKQLVHLKKNDLKETMRVVLKEQIDAGVVSAIKLADGQNLYVDVTAIEQQLDTDFGLKILSPFDNSLIHRDRLTSLFEFDYRIECYLPAAKRVFGYFCLPILYQNELVGRIDCKAHRTVKELEVISLHLEKTVKDKEHFFFELDQELKRFAAFNQCSTVNDKVVKLIRSKLLEHHHHHH | not soluble |
| MKEHSIDIQLSHPDDLFHLFGSNERHLRLMEEELDVVIHARTEIVQVLGEESACEEARQVIQALMVLVNRGMTVGTPDVVTAISMVKNDEIDKFVALYEEEIIKDNTGKPIRVKTLGQKLYVDSVKQHDVTFGIGPAGTGKTFLAVTLAVTALKRGQVKRIILTRPAVEAGESLGFLPGDLKEKVDPYLRPVYDALYQILGKDQTTRLMEREIIEIAPLAYMRGRTLDDAFVILDEAQNTTIMQMKMFLTRLGFHSKMIVNGDISQIDLPRNVKSGLIDAQEKLKNIHQIDFVHFSAKDVVRHPVVAQIIRAYEYSTEVAHD | not soluble |
| MKEIELIATAAAGVESVVKHEVKKLGFKDITVDNGKIMFKGDISSIPRANLWLRSADRVLLKMGEFEALTFEELFDKTYALPWDQWITSDGKFTVLGKSVKSKLFSISDCQAIVKKAVVEKLKSKYHVEWFEESGPEYTIQVALHKDIATLTIDTSGTALHKRGYRAKNVEAPIKETLASAMILISYWNKRKPLWDCFCGSGTIPIEAALIGRNIAPGLNRTFASEEWPAIGKDIWKQERALALRAIDHDIKLKIYGSDINPDAIELAKENACLAGVDDCIEFFVSDFRNVNIKEDYGVIICNPPYGERIGEQQEVETINKDMGKTFSKYDTWSKYIITPFENFERLYGKKADKKRKFYNGNIKVDYYQYFGPKPTNT | soluble |
| MKEKIALITGVTGQDGSYLAEYLLNLGYEVHGLKRRSSSINTSRIDHLYEDLHSDHKRRFFLHYGDMTDSSNLIHLIATTKPTEIYNLAAQSHVKVSFETPEYTANADGIGTLRILEAMRILGLEKKTRFYQASTSELYGEVLETPQNENTPFNPRSPYAVAKMYAFYITKNYREAYNLFAVNGILFNHESRVRGETFVTRKITRAASAIAYNLTDCLYLGNLDAKRDWGHAKDYVKMMHLMLQAPIPQDYVIATGKTTSVRDFVKMSFEFIGINLEFQNTGIKEIGLIKSVDEKRANALKLNLSHLKKGQIVVRIDERYFRPTEVDLLLGDPTKAEKELDWVREYDLKELVKDMLEYDLKECQKNLYLQDGGYILRNFYE | soluble |
| MKEKIPFYNEKEFHDMVKKTKKGTFSGWYIIDKDNKSVEFSGSFNRQFKLNKPVIPVNTEYVTRKEFNEYKVSNDQRLTKIETTLAAQGEQINKLTQTVEKQGEQINQLVQVVLLHGEQINKLTQTVEKQGEQIKELQVEQKAQGEQIKAQGKQIKAQGKTLKSILQALGGINKRLDKIDPPKLEHHHHHH | not soluble |
| MKEKYKKSLYIPNELLLEIFADKNLDIQNIIVVSMVCKLWYELSLDNAVWRPLFIKRFSYSPTLANHSIFKEDYQKQLALTQAMKKKCESNHACRNEPGLLEAIREKNIPLIYALFESGHRIIIDSFPDGEQQFTEEMLGFLSECAELPSSLLARIFKRGFCTADMETSEFLALHFIVAEADEKLLQKIFRALGDDLLSVSRYCDLYDNNFFSSLLHFPVERFSLVLRLLYETLGKTKLSTLLVYQNHTYTDWSCIHSASRCGREYFFITLKYLKRQDYPVLLKKGLNDEDIPLFNIAYWGDKESLSHIINILGADATTFLKYKDNKGRNILLPALLSEDHSTVELIEKVMGMEFIDLLLMQDTNGRDILRRVMLLQEPTVLRRINTVLKLLRDYDCLDIAQELYSSDEFTQLISQNLYINQDETIELFNKYTEEKTNNFCSIL | not soluble |
| MKENDLIPNVKVMIDVRNMNNISDTDGSPNDFTSIDTHELFNNKKILLISLPGAFTPTCSTKMIPGYEEEYDYFIKENNFDDIYCITNNDIYVLKSWFKSMDIKKIKYISDGNSSFTDSMNMLVDKSNFFMGMRPWRFVAIVENNILVKMFQEKDKQHNIQTDPYDISTVNNVKEFLKNNQL | soluble |
| MKETNAGSVYSPELIEFATVGVEFCALVEQAAAHRTTDFIDKASKVLPLLYLKTALLPPYEYSEEVDFVEEYITEESYEQVRSAVESLLGSYDSFLDARHSDMQYSDTPVGASIGECLADVYQQVGNLLGVVRQSNDRAIPQAIGRCLTYFGEYWGNRLLAAAGALHELRYSEVYRTWEEEERAED | soluble |
| MKEVARVRNLNRIIMGKYEIEPWYFSPYPIELTDEDFIYIDDFTLQYFGSKKQYERYRKKCTLRHPPGNEIYRDDYVSFFEIDGRKQRTWCRNLCLLSKLFLDHKTLYYDVDPFLFYCMTRRDELGHHLVGYFSKEKESADGYNVASILTLPQYQRMGYGKLLIEFSYELSKKENKVGSPEKPLSDLGLLSYRAYWSDTLITLLVEHQKEITIDEISSMTSMTTTDILHTAKTLNILRYYKGQHIIFLNEDILDRYNRLKAKKRRTIDPNRLIWKPPV | soluble |
| MKEYLTNERIRAKQVRVVGPDGKQLGIMDTREALRLAQEMDLDLVLVGPNADPPVARIMDYSKWRYEQQMAEKEARKKAKRTEVKSIKFRVKIDEHDYQTKLGHIKRFLQEGHKVKVTIMFRGREVAHPELGERILNRVTEDLKDLAVVEMKPEMLGRDMNMLLAPVKVSA | soluble |
| MKFCYNVVTYCTKRKNNLQEYSIEITLQHPDDMMSLFGSNERHLKLIEENLDVIIHARTERVQVLGDSEEAVETARLTIEALLVLVNRGMTVNTSDVVTALSMAQNGSIDKFVALYEEEIIKDSYGKPIRVKTLGQKIYVDSVKNHDVVFGIGPAGTGKTFLAVTLAVTALKRGQVKRIILTRPAVEAGESLGFLPGDLKEKVDPYLRPVYDALYQILGKEQTSRLMEREIIEIAPLAYMRGRTLDDAFVILDEAQNTTIMQMKMFLTRLGFNSKMIVNGDVSQIDLPKNVKSGLIDAVEKLRNIKKIDFIHLSAKDVVRHPVVAEIINAYSDSESSHKLQSDKD | not soluble |
| MKFGKEIAKKNQIIYRYIILKIQSFEWPANTRIFSERQLEIRFNSSRSQIRSVLATLLNKNIIRYTKNTPGYFVCKDVGFSFFHKTQDNLKVKYAKLSTLIKKLLSQDDASVFANIDSTVHLDKFKGIEAKFFDENKKHFLNVCFFAKDDILNILDENNLQQQFFREFAYNGIAIEKRHCVTSVDKESGCLVMYDMYYDDNDNFVVASKSNFLNPELKVINA | soluble |
| MKFNIRGENIEVTPALKEYVEKKLSKLERYFDTFPEIKVNLKVYSDKQRVEVTIPFTDLLLRAEETNSDMYAAIDLVVDKIERQIRKHKTKVNRKLREKGSIKTNFILPEAVAVLDEVEEDELELVRTKRFDLKPMDVEEAILQMDMLGHNFFVFTNADTNETNVVYGRKDGKYGLIETKLEHHHHHH | soluble |
| MKFTVGIAMNPLDQLPALARTAEECGFSSIALPDSLFFMEKQSADYPYTPDGSRMWNEETPWVDPLIAAAAMGAVTSKIEFYTQVLKLGSRNPVLLARQVGSVANLIGNRFGFGVGIGWAPEEFEWCGVPYKKRGARVDEMIDVIKLILGGGMVEYHGEFFDFDRLQMSPAPTKPVPFYVGGHTDVALRRAARVGDGWTSAMIKFDDLVQVIARLRELREEYGRADLPYEIQTVCIDRFGKDGYAELADAGVTDTIVVPWVFDGIGFDGPLEAKQDSLRKFADQYIG | not soluble |
| MKGDRLKANVLAVRLIPNVDSDMAKELGLPNEHRSIGILTADCDDVTYTALDEATKKAVVDVAYGKSFYGGAANANTKLAGEVIGILSGPTPAEVKSGLAAAVDFIENEAAFISANDDDSIAYFAHCISRTGTYLSKTAGIPEGESLAYLIAPPLEAMYALDVALKAADVRLVAFYGPPSETNFGGGLLTGSQSACKAACDAFAEAVKFVADNPLNY | soluble |
| MKGERLDKVLARLGLGSRKEVARLVRQGKVRVLGQVVKDPGFRVPEGAALEVEGRPLEVRRHLHVLLHKPPGFVTSRTEGPSVYALLQGFPTRDLSPVGRLDKDAEGLLLFTTDGLLLHRLTHPRHKVAKRYLVHLERPVGPKDQEAFREGILLDGKKTLPAELTPLEDPTWAEVVLKEGRFHQIKRMFRARGNRVLRLKRLALGPLELGDLPPGKARPLTEAEEKALYAAVGLGGEDPEDEV | soluble |
| MKGFIDDANYSVGLLDEGTNLGNVIDNYVYEHTLTGKNAFFVGDLGKIVKKHSQWQTVVAQIKPFYTVKCNSTPAVLEILAALGTGFACSSKNEMALVQELGVSPENIIFTSPCKQVSQIKYAAKVGVNIMTCDNEIELKKIARNHPNAKVLLHIATEDNIGGEDGNMKFGTTLKNCRHLLECAKELDVQIIGVKFHVSSACKEYQVYVHALSDARCVFDMAGEFGFTMNMLDIGGGFTGTEIQLEEVNHVISPLLDIYFPEGSGIQIISEPGSYYVSSAFTLAVNIIAKKVVENDKFSSGVEKNGSDEPAFVYYMNDGVYGSFASKLSEDLNTIPEVHKKYKEDEPLFTSSLWGPSCDELDQIVESCLLPELNVGDWLIFDNMGADSFHEPSAFNDFQRPAIYFMMSFSDWYEMQDAGITSDAMMKNFFFAPSCIQLSQEDSFSTEA | soluble |
| MKGGCVSQWKAAAGFLFCVMVFASAERPVFTNHFLVELHKGGEDKARQVAAEHGFGVRKLEHHHHHH | not soluble |
